Source: patent publication US11214614B2, “LTBP complex-specific inhibitors of TGFβ and uses thereof” (Scholar Rock, Inc., priority 2019, dated 2022)
Numbering of substitutions follows the chain as printed.

B1: SR-AB42: cycle 3 antibody, lineage SR-AB23; CDRs SEQ ID NO: 166-171; HCVR SEQ ID NO: 318, LCVR SEQ ID NO: 319 (antibody, V domains shown)
VH: QVQLVESGGGVVQPGRSLRLSCAASGFTFRSYVMHWVRQAPGKGLEWVAVISHEGSLKYYADSVKGRFTISRDNSKNTLYLQMNSLRAEDTAVYYCARPRIAARRGGFGYWGQGTLVTVSS
VL: NFMLTQPHSVSESPGKTVTISCTRSSGNIDNNYVQWYQQRPGSSPTTVIYEDNQRPSGVPDRFSGSIDSSSNSASLTISGLKTEDEADYYCQSYDYDTQGVVFGGGTKLTVL
B2: SR-AB22: second-round (CDR-H3 mutagenesis) antibody, lineage SR-AB14; CDRs SEQ ID NO: 108-113 (antibody, V domains shown)
VH: B1 VH with R98V
VL: B1 VL with Y96S, T98N
B3: SR-AB23: second-round (CDR-H3 mutagenesis) antibody, lineage SR-AB14; CDRs SEQ ID NO: 116-121 (antibody, V domains shown)
VH: B1 VH
VL: B1 VL with Y96S, T98N
B4: SR-AB63: cycle 3 antibody, lineage SR-AB26; CDRs SEQ ID NO: 292-297; HCVR SEQ ID NO: 360, LCVR SEQ ID NO: 361 (antibody, V domains shown)
VH: QLQLQESGPGLVKPSETLSLTCTVSGGSIRSSSYYWGWIRQPPGKGLEWIGSISYSATTYYNPSLKSRVTISVDTSKNQFSLKLSSVTAADTAVYYCAGDPSYDSIAGMQVWGQGTTVTVSS
VL: DIQLTQSPSSLSASVGDRVTITCRASQSISSYLNWYQQKPGKAPKLLIYAASNLQSGVPSRFSGSGSGTDFTLTISSLQPEDFATYYCQQSFDWPLTFGGGTKVEIK

How the values were obtained:
Assay in all cases: Octet (BLI) binding, IgG captured on AHC tips, antigen at 100 nM
huGARP proTGFβ1 = huGARP proTGFβ1 (Homo sapiens, UniProt P01137); details: for ForteBio IgG KD Hu GARP-proTGFβ1 (M) Avid: IgG1-agly, 1:1 fit; for ForteBio IgG KD Hu GARP-proTGFβ1 in solution (M) Avid: Table 10, same assay conditions as Table 9
Chain of huGARP proTGFβ1 (P01137 30-390): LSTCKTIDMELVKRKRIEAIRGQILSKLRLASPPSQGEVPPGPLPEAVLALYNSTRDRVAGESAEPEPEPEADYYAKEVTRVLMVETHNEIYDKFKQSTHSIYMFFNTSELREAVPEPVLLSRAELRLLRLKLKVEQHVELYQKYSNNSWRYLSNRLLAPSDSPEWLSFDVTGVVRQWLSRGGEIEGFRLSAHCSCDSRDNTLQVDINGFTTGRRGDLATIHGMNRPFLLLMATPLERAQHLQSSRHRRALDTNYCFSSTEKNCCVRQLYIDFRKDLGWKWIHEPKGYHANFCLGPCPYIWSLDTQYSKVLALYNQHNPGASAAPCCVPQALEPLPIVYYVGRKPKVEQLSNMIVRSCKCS
Chain of huGARP proTGFβ1 (Q14392 18-627 partner limits assumed): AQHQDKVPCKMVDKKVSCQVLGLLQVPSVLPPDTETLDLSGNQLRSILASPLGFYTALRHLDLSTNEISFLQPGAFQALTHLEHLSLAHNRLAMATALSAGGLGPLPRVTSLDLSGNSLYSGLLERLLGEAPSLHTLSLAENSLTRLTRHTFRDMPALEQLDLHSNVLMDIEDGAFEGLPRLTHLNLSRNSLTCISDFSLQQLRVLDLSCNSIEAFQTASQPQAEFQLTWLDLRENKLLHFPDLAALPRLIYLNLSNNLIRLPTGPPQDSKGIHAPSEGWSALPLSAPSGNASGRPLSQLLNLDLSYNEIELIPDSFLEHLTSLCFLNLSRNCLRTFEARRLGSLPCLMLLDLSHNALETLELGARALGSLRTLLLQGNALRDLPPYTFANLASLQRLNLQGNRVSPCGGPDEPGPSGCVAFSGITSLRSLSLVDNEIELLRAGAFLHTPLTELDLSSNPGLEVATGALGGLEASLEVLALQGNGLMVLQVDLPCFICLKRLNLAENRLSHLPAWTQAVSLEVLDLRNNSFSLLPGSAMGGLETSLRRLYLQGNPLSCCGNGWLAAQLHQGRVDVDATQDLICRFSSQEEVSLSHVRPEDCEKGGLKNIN
In short: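 Antibody loaded at 1 μg/mL onto anti-human Fc capture biosensors, then exposed to human GARP-proTGFβ1 at 100 nM in 1× kinetics buffer with 1000 rpm shaking. Association 3 min, dissociation 3 or 5 min; KD from 1:1 local full fit.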

huLTBP1 proTGFβ1 = huLTBP1 proTGFβ1 (Homo sapiens, UniProt P01137+Q14766); details: for Hu LTBP1-proTGFβ1 Kon / Hu LTBP1-proTGFβ1 Koff: Table 9, cycle 3; for Hu LTBP1-proTGFβ1 Kon / Hu LTBP1-proTGFβ1 Koff / Affinity for human LTBP1 complexed with proTGFβ1: IgG1-agly; for Hu LTBP1-proTGFβ1 Kon: 1:1 fit; for Hu LTBP1-proTGFβ1 Koff: 5-minute dissociation; for Response, binding to human LTBP-1 proTGFb1: Octet, antibody immobilized (loading sample); for Affinity for human LTBP1 complexed with proTGFβ1: Table 8, Octet
Chain of huLTBP1 proTGFβ1 (P01137 30-390): as the sequence (P01137 30-390) above
Chain of huLTBP1 proTGFβ1 (Q14766 347-1721 limits assumed): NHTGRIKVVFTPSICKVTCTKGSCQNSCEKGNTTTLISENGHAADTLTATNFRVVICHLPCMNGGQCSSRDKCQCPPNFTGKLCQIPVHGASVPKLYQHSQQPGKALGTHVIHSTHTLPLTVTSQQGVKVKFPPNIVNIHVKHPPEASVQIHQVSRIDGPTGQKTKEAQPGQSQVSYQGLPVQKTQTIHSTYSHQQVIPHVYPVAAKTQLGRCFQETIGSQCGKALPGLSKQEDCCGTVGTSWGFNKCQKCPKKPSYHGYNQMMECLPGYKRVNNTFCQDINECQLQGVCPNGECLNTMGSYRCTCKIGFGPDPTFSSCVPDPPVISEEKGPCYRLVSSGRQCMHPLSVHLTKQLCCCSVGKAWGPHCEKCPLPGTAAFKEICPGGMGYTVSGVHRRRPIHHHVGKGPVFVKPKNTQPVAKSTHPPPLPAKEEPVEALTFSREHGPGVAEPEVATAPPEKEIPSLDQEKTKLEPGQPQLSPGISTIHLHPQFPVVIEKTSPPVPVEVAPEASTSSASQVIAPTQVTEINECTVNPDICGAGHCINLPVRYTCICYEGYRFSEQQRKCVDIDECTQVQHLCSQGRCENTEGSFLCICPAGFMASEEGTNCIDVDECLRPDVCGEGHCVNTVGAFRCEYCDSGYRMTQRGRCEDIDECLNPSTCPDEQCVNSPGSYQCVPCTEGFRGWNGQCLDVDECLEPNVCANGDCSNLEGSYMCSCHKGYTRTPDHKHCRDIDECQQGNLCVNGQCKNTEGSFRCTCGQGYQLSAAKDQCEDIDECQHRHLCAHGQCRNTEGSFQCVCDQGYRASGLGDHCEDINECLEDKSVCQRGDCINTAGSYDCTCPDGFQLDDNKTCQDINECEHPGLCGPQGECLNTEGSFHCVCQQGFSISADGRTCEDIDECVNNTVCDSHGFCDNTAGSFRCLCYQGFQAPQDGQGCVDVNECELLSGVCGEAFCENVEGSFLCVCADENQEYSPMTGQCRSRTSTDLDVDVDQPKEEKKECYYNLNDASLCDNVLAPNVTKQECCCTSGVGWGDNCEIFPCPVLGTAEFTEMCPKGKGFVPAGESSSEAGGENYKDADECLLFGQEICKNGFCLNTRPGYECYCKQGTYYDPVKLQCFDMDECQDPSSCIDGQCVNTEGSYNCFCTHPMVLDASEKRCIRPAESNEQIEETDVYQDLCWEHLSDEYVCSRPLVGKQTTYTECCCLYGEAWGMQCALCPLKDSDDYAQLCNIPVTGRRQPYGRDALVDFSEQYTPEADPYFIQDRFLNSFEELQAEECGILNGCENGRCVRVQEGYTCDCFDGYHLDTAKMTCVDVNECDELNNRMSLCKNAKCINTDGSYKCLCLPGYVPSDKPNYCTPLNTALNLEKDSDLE
In short: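 Antibodies were captured on anti-human Fc biosensors at 1 μg/mL (~7 nM), to a maximum response of 1 nm. Antigen complex was run at a single 100 nM in 1× kinetics buffer, shaking at 1000 rpm. Association was 3 min and dissociation 3 min (5 min in later rounds), with KD from a local, full 1:1 fit.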

huLTBP3 proTGFβ1 = huLTBP3 proTGFβ1 (Homo sapiens, UniProt P01137+Q9NS15); details: IgG1-agly; for Hu LTBP3-proTGFβ1 Kon / Hu LTBP3-proTGFβ1 Koff: Table 9, cycle 3; for Hu LTBP3-proTGFβ1 Koff: 5-minute dissociation; for Affinity for human LTBP3 complexed with proTGFβ1: Table 8, Octet
Chain of huLTBP3 proTGFβ1 (P01137 30-390): as the sequence (P01137 30-390) above
Chain of huLTBP3 proTGFβ1 (Q9NS15 44-1303): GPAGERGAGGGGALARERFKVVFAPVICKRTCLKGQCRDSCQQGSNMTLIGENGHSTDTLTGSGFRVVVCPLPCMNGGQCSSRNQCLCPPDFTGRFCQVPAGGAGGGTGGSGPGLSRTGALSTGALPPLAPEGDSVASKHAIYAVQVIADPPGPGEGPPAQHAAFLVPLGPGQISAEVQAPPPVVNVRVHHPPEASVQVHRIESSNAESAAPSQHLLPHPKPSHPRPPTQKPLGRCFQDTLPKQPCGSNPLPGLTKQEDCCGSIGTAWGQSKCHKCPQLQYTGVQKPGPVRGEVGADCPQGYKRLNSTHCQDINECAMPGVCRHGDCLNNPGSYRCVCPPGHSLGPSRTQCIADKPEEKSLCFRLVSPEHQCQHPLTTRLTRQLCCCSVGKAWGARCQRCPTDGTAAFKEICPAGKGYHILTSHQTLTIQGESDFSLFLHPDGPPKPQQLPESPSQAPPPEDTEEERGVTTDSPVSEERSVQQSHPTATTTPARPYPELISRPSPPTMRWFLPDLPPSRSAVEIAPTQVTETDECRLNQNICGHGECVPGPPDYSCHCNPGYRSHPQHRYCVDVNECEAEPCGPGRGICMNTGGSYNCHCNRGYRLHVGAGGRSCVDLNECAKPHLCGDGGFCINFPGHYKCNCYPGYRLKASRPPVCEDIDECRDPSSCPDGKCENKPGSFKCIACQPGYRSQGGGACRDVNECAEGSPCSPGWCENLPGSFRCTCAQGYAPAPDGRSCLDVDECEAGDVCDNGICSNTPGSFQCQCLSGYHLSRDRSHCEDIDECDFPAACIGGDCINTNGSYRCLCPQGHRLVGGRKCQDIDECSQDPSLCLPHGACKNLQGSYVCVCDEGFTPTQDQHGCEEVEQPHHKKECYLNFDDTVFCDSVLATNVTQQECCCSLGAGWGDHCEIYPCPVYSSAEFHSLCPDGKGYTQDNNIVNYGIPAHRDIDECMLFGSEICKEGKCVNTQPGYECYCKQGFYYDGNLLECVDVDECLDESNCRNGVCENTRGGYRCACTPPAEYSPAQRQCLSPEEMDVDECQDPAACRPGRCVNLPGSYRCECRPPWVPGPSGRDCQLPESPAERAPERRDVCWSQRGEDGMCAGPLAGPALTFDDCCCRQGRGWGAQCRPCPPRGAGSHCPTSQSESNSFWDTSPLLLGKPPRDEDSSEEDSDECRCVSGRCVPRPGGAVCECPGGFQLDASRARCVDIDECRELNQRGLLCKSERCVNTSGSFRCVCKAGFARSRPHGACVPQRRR
In short: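 Antibodies loaded at 1 μg/mL onto anti-human Fc sensors were exposed to each TGFβ1 complex at 100 nM in kinetics buffer. Association ran 3 min; dissociation was 3 min in one protocol and 5 min in another. KD came from a 1:1 fitting model.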

[1] = Table 9, cycle 3, N.B. = non-binder under conditions of this assay
[2] = N.B. = non-binder under conditions of this assay
[3] = Table 8, P.F. = Poor Fit, N.B. = Non-binder under conditions of this assay

| Molecule | ForteBio IgG KD Hu GARP-proTGFβ1 (M) Avid (huGARP proTGFβ1; [1]) | ForteBio IgG KD Hu GARP-proTGFβ1 in solution (M) Avid (huGARP proTGFβ1; [2]) | Hu LTBP1-proTGFβ1 Kon (huLTBP1 proTGFβ1) [M⁻¹ s⁻¹] | Hu LTBP1-proTGFβ1 Koff (huLTBP1 proTGFβ1) [s⁻¹] | Hu LTBP3-proTGFβ1 Kon (huLTBP3 proTGFβ1; 1:1 fit) [M⁻¹ s⁻¹] | Hu LTBP3-proTGFβ1 Koff (huLTBP3 proTGFβ1) [s⁻¹] | ForteBio IgG KD Hu GARP-proTGFβ1 (M) Avid (huGARP proTGFβ1; [3]) | Response, binding to human LTBP-1 proTGFb1 (huLTBP1 proTGFβ1) [nm] | Affinity for human LTBP1 complexed with proTGFβ1 (huLTBP1 proTGFβ1) | Affinity for human LTBP3 complexed with proTGFβ1 (huLTBP3 proTGFβ1) | ForteBio IgG KD Hu LTBP3-proTGFβ1 (M) Avid (huLTBP3 proTGFβ1; Table 8, 1:1 fit, P.F. = Poor Fit, N.B. = Non-binder under conditions of this assay) |
| --- | --- | --- | --- | --- | --- | --- | --- | --- | --- | --- | --- |
| B1 | N.B. | N.B. | 154000 | 6e-05 | 232000 | 6e-05 | – | – | – | – | – |
| B2 | – | – | – | – | – | – | P.F. | 0.4317 | single digit nM | single digit nM | P.F. |
| B3 | – | – | – | – | – | – | N.B. | 0.3449 | single digit nM | single digit nM | – |
| B4 | N.B. | N.B. | 118000 | 7.24e-05 | 159000 | 7.84e-05 | – | – | – | – | – |
